Test results: PMC9805127

Substrate: O=C(O)C(=O)O
Test: purified protein
Details: pH 4.0 (authors' preferred pH; also measured at pH 3 and 5), 100 mM buffer, air-saturated, 25 °C, 0.025 μM HvOXO, 0.125 μM PaDa-I as coupling enzyme

B1: HvOXO (Hordeum vulgare) (protein)
chain: SDPDPLQDFCVADLDGKAVSVNGHTCKPMSEAGDDFLFSSKLTKAGNTSTPNGSAVTELDVAEWPGTNTLGVSMNRVDFAPGGTNPPHIHPRATEIGMVMKGELLVGILGSLDSGNKLYSRVVRAGETFVIPRGLMHFQFNVGKTEAYMVVSFNSQNPGIVFVPLTLFGSDPPIPTPVLTKALRVEAGVVELLKSKFAGGS
Q: B1 was tested. Which Km did it give?
A: Its Km is 730 ± 90 µM.

Q: And the kcat?
A: Its kcat is 1.52 s⁻¹.

Q: What about the kcat/Km of the same protein?
A: The kcat/Km was 2080 M⁻¹ s⁻¹.
